Assay: yeast display, Sf9 membrane polyspecificity reagent, FACS + sequencing; frameworks hold sequencing errors
How it was run: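 Genes from sorted yeast were amplified by colony PCR, read by MiSeq 2 × 250 sequencing and filtered on CDR length. These cells carried a synthetic nanobody library in Saccharomyces cerevisiae BJ5465 and were sorted by FACS into low and high (top ~1%) gates on anti-HA and streptavidin fluorescence. Polyreactivity is labelled according to the gate of origin.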

| Sequence | polyreactivity (PSR sort gate) |
| --- | --- |
| QVQLVESGGGLVQAGGSLRLSCAASGRIFYSNAMGWYRQAPGKERELVAAITWRGGSTYYADSVKGRFTISRDNAKNTVYLQMNSLKPEDTAVYYCATDGYDDTHYYYWGQGTQVTVSS | low polyreactivity |
| QVQLVESGGGLVQAGGSLRLSCAASGRTSGINAMGWYRQAPGKERELVAAISSGGRTYYADSVKGRFTISRDNAKNTVYLQMNSLKPEDTAVYYCAAVIHWSLYRRMEYWGQGTQVTVSS | high polyreactivity |
| QVQLVESGGGLVQAGGSLRLSCAASGSTFQVYTMGWYRQAPGKEREFVASISWSGSSTYYADSVKGRFTISRDNAKNTVYLQMNSLKPEDTAVYYCAAPDESYSVWRLDGLDYWGQGTQVTVSS | high polyreactivity |
| QVQLVESGGGLVQAGGSLRLSCAASGRTFSAYAMGWYRQAPGKERELVARITSVDSTNYADSVKGRFTISRDNAKNTVYLQMNSLKPDDTAVYYCNATFVFPFVDYDDYWGQGTQVTVSS | low polyreactivity |
| QVHLVESGGGLVQAGGSLSLSCDASGRTFYENAMGWYRQAPGKERELVAAISQSSGSTYYADSVKGRFTISRDNAKNTVYLQMNSLKPEDTAVYYCAAVQGANYYNEFDYWGQGTQVTVSS | high polyreactivity |
| QVQLVESGGGLVQAGGSLRLSCAASGRTFLPNDMGWYRQAPGKERELVAAITDSGGDTYYADSVKGRFTISRDNAKNTVYLQMNSLKPEDTAVYYCASDYYYYGSYYPVEYWGQGTQVTVSS | high polyreactivity |
| QVQLVESGGGLVQAGGSLRLSCAPSGLTFTTYAMGWYRQAPGKERELVAAISRRGSRTYYADSVKGRFTISRDNAKNTVYLQMNSLKPEDTAVYYCNALTGSFKTYSFDYWGQGTQVTVSS | high polyreactivity |
| QVQLVESGGGLVQAGGSLRLSCAASVSIFSSYAMGWYRQAPGKERELVAAISRSGGRTYYADSVKGRFTISRDNAKNTVFLQMNSLKPEDTAVYYCNAYAQVSYGTYDYWGQGTQVTVSS | high polyreactivity |
| QVQLVESGGGLVQAGGSLRLSCAASGRTLGVNAMGWYRQAPGKERELVAAISTRGTTTNYADSVKGRFTISRDNAKNTVYLQMNSLKPEDTAVYYCAVRSRTPRAYYYWGQGTQVTVSS | low polyreactivity |
| QDQLVESGGGLVQAGGSLRLSCAASGLTFSLYAMGWYRQAPGKERELVAAISWTGGSTYYADSVKGRFTISRDTPKNTVYLQMNSLKPEDTAVYYCNARYTLFARYGYDYWGQGTQVTVSS | low polyreactivity |
| QVQLVESGGGLVQAGGSLRLSCADSGITFYRYAMGWYRQAPGKERELVATITSSGGRTYYADSVKGRFTISRDNAKNTVYLQLNSLKPEDTAVYYSAAGKFSYRVYYQFRGGNYWGQGTQVTVSS | high polyreactivity |
| QVQLVESGGGLVQAGGSLRLSCAASGRTSKYYAMGWYRQAPGKERELVAAITGTGGSTYYADSVKGRFTISRDNAKNTVYLQMNSLKPEDTAVYYCAALRKSYTYDSWGQGTQVTVSS | high polyreactivity |
| QDQLVESGGGLVQAGGSLRLSCAASGINFPLYAMGWYRQAAGKERELVAAISSSDGDTFYADSVKWRFTISRDNAKNTVYLQMNSLKPYDTAVYYCAAVAPTELLYTYGYYPYYYWGQGTQVTVSS | high polyreactivity |
| QVQLVESGGGLVQAGGSLRLSCAASGRTFYSNAMGWYRQAPGKERELVAAITSTDDSTYYADSVKGRFTISRDNAKNTVYLPMNSLKPEDTAVYYCAAESGYPVYTYVSSGDYWGQGTQVTVSS | low polyreactivity |
| QVQLVESGGGLVQAGCSLRLSCAASGRIFYSNVMGWYRQAPGKERELVAAISGRTGGTYYADSVKGRFTISRDTAKNTVYLQMNSLKPEDTAVYYCAARVIYYYGSGPYDYWGQGTQVTVSS | low polyreactivity |
| QVQLVESGGGLVQAGCSLRLSCAASGSIFYYYAMGWYRQAPGKERELVAAIRRSGSTTYADSVKGRFTISRDNAKNTVYLQMNSLKPEETAVYYCNVYGYGTEYDYWGQGTLVTVSS | high polyreactivity |

| Sequence | polyreactivity (PSR sort gate) |
| --- | --- |
| QVQLVESGGGLDQAGGSLPLSCASSGSIFRSNAMGWSRQPPAKAREMVAAITESGDTTNYADSVKGRFTISRDNAKNTVYLQMNSLKPEDTAVYYCNAGWTMSYVYSQMDYWGQGTQVTVSS | low polyreactivity |
| QVQLVESGGGLVQAGGSLRLSCAASGGMLPKNAMGWYRQAPGKVRELVAGISTRGTSTYYADSVKGRFTISRDNAKNTVYLQMNSLKPEDTAVYYCATSRDYIGYDYWGQGTQVTVSS | low polyreactivity |
| QVQLVESSGGLVQAGGSLRLSCAASGFSFKRYAMGWYRQAPGTERELVAAINSGGSTNYADSVKGRFTMSRDNAKNTVYLQMNSLKPEDTAVYSCAASTPQYQYYYWGQGTQVTVSS | high polyreactivity |
| QVQLVESGGGLVQEGGSLRLSCAASGSIFYRYTMGWYRPAPGKERELVAAISSRGGSTYYADSVKGRFTISRDNAKNTVYLQMNCLKPEDTAVYYCAARYYRNPVFVIMDYWGQGTQVTVSS | high polyreactivity |
| QVQLVESGGGLVQAGGSLRLSCAASGRTSYRDAMGWYRQAPGKESEFVAAISKSGTSTYYADSVKGRFTISRDNAKNTVYVQMYRLKPEDTAVYYCAAITGVGLRVNSGIGFYYWGQGTQVTVSS | high polyreactivity |
| QVQLVESGGGLVQAGGSLRLSCAASGITFYRYGMGWYRQAPGKARELVAAITYNGGGTYYADSVKGRFTISRDNAKNTVYLQMNSLKPEDTAVYYCNARYYRKYDYWGQGTQVTVSS | high polyreactivity |
| QVQLVESGGGLVQSGGSLRLSCAASGRIFDWNVMGSYRQAPGKERELVSVINDSTGTTYYADSVKGRFTISRDNAKNTVYLQMNSLKPEDTAVYYCAAYVWISSEEFYYWGQGTQVTVSS | low polyreactivity |
| QVHLVESGGGLVQAGGSLRLTCAASGRTFGRYAMGWYRQAPGKERELVAAIRYTGGSTYADSVKGRFTISRDNAKNTVYLQMNSLKPEDTAVYYCNRGGAFNTRNEITRYGYWGQVTQVTVSS | low polyreactivity |
| QVQLVESGGGLVQAGGSLRLSCAASGRTFYSYAIGWYRPAPGKERELVASITRSGTRTYYADSVKGRFTISRDNAKNTVYLQMNSLKPEDSAVYYCAARYFPLGGYSWGQGTQVSVSS | high polyreactivity |
| QVQLVESGGGLVQAGGSLRLSCAASGRIFIRYAMGSYRQAPGKERELVAAITYSGGRTYYADSVKGRFTISRDNAKNTVYLQMNSLKPEDTAVYYCAADAPYGEDYWGQGTQVTVSS | high polyreactivity |
| QVQLVESGGCLVQAGGSLRLSCAASGRTFAYYAMGWYRQAPGKERELVAAITRGGSTYYADSVKGRFTISRDNAKNTVYLQMNSLKPEDTAVYYCAADTSPYQDDYWGQGTQVTVSS | low polyreactivity |
| QVQLVESGGGLVQAGGSLRLSCAASGFTLLTYVMGWYIQAPGKERELVAAISKSGSRTYYADSVKGRFTISRDNAKNTVYLQMNSLKPEDTAVYYCAADTSAYRYDYWGQGTQVTVSS | high polyreactivity |
| QVHLVESGGGLVQAGGSHRLRCAASGRIFSGYAKGRYRQAPGKERELVAAITQSGGSTSYADSVKGRFTISRDNAKNTVYLQMIRLKPEDTAVYYCNVDDSTWIGAYRRYDYWGQGTQVTVSS | low polyreactivity |
| QLQLVESGGGLVQAGGSLRLSCSASGGTFYRNAMGWSRQAPGKESELVPSISRTGGSTYYADSVKGRFTISRDNAKNTVYLQMNILKPEDTAVYYCANKQPRYSYFDNDYWGQGTQVTVSS | high polyreactivity |
| QVQLVASGGGLVQAGGSLRISCAASGRTITPYAMGWYRQAPGKERELVATISSGTSPNYADSVKGRFTISRDNAKNTVYLQMNSLIPEDTAVYYCAADGYTYKFDYWGQGTQVTVSS | low polyreactivity |
| QVQLVESGGGLVQAGGSLRLSCAASGSIFKLNAMGWYRQAPGKERELVAAISRGGRTYYADSVKGRFTISRDNAKNTVYLQMNSLKPEDTAVYYCAADASSQIWYYPRDDYWGQGTLVTVSS | low polyreactivity |

— the nanobody polyreactivity screen of Harvey et al. (2022)
